# In paper PMC11403483:
# How the values were obtained:
# [1] = biological target: recombinant PSG1 (pregnancy-specific glycoprotein 1) (human) (UniProt P11464); assay: SPR
# [2] = biological target: recombinant murine Psg23-myc-His (mouse); assay: BLI
# Sequence of recombinant PSG1 (pregnancy-specific glycoprotein 1) (human) (P11464 35-419): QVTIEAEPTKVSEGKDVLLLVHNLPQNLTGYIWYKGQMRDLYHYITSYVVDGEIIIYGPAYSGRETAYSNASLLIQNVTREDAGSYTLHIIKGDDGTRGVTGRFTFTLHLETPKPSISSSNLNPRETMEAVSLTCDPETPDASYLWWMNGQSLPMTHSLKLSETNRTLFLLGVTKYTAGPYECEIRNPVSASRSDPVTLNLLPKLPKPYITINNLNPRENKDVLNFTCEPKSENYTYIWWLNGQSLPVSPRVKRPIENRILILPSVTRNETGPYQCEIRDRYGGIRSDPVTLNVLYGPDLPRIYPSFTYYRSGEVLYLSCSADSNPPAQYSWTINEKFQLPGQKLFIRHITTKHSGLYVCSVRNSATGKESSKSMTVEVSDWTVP
# Sequence of recombinant mouse galectin 9 (O08573 whole entry): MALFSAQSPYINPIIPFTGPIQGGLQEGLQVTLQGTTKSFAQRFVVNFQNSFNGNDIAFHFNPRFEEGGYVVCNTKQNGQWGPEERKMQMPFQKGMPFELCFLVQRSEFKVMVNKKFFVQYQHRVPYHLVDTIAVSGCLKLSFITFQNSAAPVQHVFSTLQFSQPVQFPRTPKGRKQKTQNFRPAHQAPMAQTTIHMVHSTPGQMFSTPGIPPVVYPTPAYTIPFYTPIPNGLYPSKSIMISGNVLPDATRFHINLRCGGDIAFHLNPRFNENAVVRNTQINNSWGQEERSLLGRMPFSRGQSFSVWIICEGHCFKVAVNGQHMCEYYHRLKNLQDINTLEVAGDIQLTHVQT
Kd [1] [µM],koff [1] [s⁻¹],Kd [2] [µM],koff [2] [s⁻¹],kon [2] [M⁻¹ s⁻¹],Substance
1.7,0.00415,,,,GAL-9 C-terminal carbohydrate recognition domain (domain or fragment)
5780,0.0106,,,,GAL-9 N-terminal carbohydrate recognition domain (domain or fragment)
,,0.00228,0.00635,2.79e+06,recombinant mouse galectin 9 (from UniProt O08573 1-353) (natural protein)
